Test results published in patent US20180066015A1, “INHIBITORS OF GROWTH FACTOR ACTIVATION ENZYMES” (Washington University, published 2018).
Starred links: 1 amine or outer side, 2 acyl side, 3 side chain; linkers in the order of their positions; H or OH if unused. Non-standard residues stand in square brackets, D forms with d. No end group written: not given here. *: point of attachment. Kbt‑6‑CONH = ketobenzothiazole-6-CONH (amide link to Val), O=C(c1ccc2nc([*:1])sc2c1)[*:2]; kbt = C-terminal ketobenzothiazole, c1ccc2sc(*)nc2c1; His(π-Bom) = N[C@@H](Cc1cncn1COCc1ccccc1)C(=O)O; Fmoc = O=C(OCC1c2ccccc2-c2ccccc21)*; cmk = not defined here

T1: matriptase (Charles Craik, UCSF), recombinant (Homo sapiens (Human), UniProt Q9Y5Y6)
T1 sequence: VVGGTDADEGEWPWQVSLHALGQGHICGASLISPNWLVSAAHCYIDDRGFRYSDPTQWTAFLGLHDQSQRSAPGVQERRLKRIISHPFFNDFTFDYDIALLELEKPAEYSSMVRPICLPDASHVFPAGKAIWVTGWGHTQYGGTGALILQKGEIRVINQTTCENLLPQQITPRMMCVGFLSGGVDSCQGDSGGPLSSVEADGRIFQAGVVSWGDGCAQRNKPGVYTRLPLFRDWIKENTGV

B1: Ac-WLFR(SEQ ID NO: 20)-Kbt (peptide)
peptide: Ac-WLFR-kbt
SMILES: CC(=O)N[C@@H](Cc1c[nH]c2ccccc12)C(=O)N[C@@H](CC(C)C)C(=O)N[C@@H](Cc1ccccc1)C(=O)N[C@@H](CCCNC(=N)N)C(=O)c1nc2ccccc2s1
B2: H-His(Bom)-dWLR-kbt (peptide)
peptide: H-[His(π-Bom)][dW]LR-kbt
SMILES: CC(C)C[C@H](NC(=O)[C@@H](Cc1c[nH]c2ccccc12)NC(=O)[C@@H](N)Cc1cncn1COCc1ccccc1)C(=O)N[C@@H](CCCNC(=N)N)C(=O)c1nc2ccccc2s1
B3: H-His(Bom)-WLR-kbt (peptide)
peptide: H-[His(π-Bom)]WLR-kbt
SMILES: CC(C)C[C@H](NC(=O)[C@H](Cc1c[nH]c2ccccc12)NC(=O)[C@@H](N)Cc1cncn1COCc1ccccc1)C(=O)N[C@@H](CCCNC(=N)N)C(=O)c1nc2ccccc2s1

Experiments:
[1] = molecular target: Hepatocyte Growth Factor Activator (HGFA) serine protease domain, N-terminal His-tag, recombinant (Homo sapiens (Human)) (UniProt Q04756)
[2] = molecular target: T1, matriptase (Charles Craik, UCSF), …; test: fluorogenic inhibition assay
Description: (§1) Inhibitors (11-pt serial dilutions, 0-20 μM final concentration in reaction) were serially diluted in DMSO (2% DMSO final concentration) and then mixed with either recombinant serine protease domain of HGFA [Z. Han, P. K. Harris, D. E. Jones, R. Chugani, T. Kim, M. Agarwal, W. Shen, S. A. Wildman, J. W. Janetka, Acs Med Chem Lett 2014, 5, 1219-1224], matriptase (Charles Craik, UCSF) or hepsin* (#4776-SE-010, R&D Systems, Minneapolis, Minn.) in black 384 well plates (Corning #3575. Corning, N.Y.). […] The final substrate concentrations for all assays were at the Kₘ for the respective enzymes. Changes in fluorescence (excitation at 380 nm and emission at 460 nm) were measured at room temperature over time in a Biotek Synergy 2 plate reader (Winnoski, Vt.). Using GraphPad Prism version 6.04 software program, (GraphPad Software, San Diego, Calif., www.graphpad.com), a four parameter curve fit was used to determine the inhibitor IC₅₀s from a plot of the mean reaction velocity versus the inhibitor concentration. The IC₅₀ values represent the average of three separate experimental determinations.
(§2) Fluorescent inhibitor and chromogenic proteolytic assays were performed in general accordance with the procedures described in Example 4 for compounds prepared in Examples 5 and 6.

[3] = molecular target: Recombinant human hepsin (4776-SE-010, R&D Systems), activated (human, UniProt P05981); test: fluorogenic inhibition assay
Description: as §1, §2

[4] = molecular target: Hepatocyte Growth Factor Activator (HGFA) serine protease domain, N-terminal His-tag, recombinant (Homo sapiens (Human)) (UniProt Q04756); test: fluorogenic inhibition assay
recombinant thrombin = test: selectivity inhibition assay
Factor Xa = test: selectivity inhibition assay

Molecule | IC50 of enzyme inhibition [1] [nM] | Ki [2] [nM] | Ki [3] [nM] | Ki [4] [nM] | Ki (recombinant thrombin) [nM] | Ki (Factor Xa) [nM]
Ac-SKLdR-kt (peptide) | 6310 |  |  |  |  | 
Ac-SRLdR-kt (peptide) | 2240 |  |  |  |  | 
Ac-SdRLR-kt (peptide) | 1420 |  |  |  |  | 
Ac-SKFdR-kt (peptide) | 10800 |  |  |  |  | 
Ac-KQFdR-kt (peptide) | 7820 |  |  |  |  | 
Ac-KHLdR-kt (peptide) | 10900 |  |  |  |  | 
Ac-RQLdR-kt (peptide) | 3120 |  |  |  |  | 
Ac-SdRLdR-kt (peptide) | 11900 |  |  |  |  | 
Ac-SHLdR-kt (peptide) | 21200 |  |  |  |  | 
H-KQLR(SEQ ID NO: 1)-Kt (peptide) | 440 |  |  |  |  | 
Ac-WQLdR-kt (peptide) | 7120 |  |  |  |  | 
H-KQLdR-kt (peptide) | 11300 |  |  |  |  | 
Ac-WKLdR-kt (peptide) | 6500 |  |  |  |  | 
Ac-KQLdR-kt (peptide) | 5530 |  |  |  |  | 
Fmoc-Thr-Arg-kbt [Fmoc-TR-kbt] |  | 1220 | 437 | > 20000 |  | 
Fmoc-Tyr-Arg-kbt [Fmoc-YR-kbt] |  | 332 | 217 | 2960 |  | 
H-[dW]-Leu-Arg-kbt [H-dWLR-kbt] |  |  | 3.58 | 128 |  | 
Fmoc-Gln-Arg-kbt [Fmoc-QR-kbt] |  | 1.6 | 170 | 6830 |  | 
{Cy5.5}-KRLR-kbt [Cy5.5-KRLR(SEQ ID NO: 8)-kbt] |  | 87.5 | 3.89 | 608 |  | 
B1 |  | 5.96 | 0.347 | 133 | > 20000 | 1
Fmoc-Pro-Arg-kbt [Fmoc-PR-kbt] |  | 40.4 | 776 | > 20000 |  | 
Ac-KRLR (not fully specified (C-terminus); also: benzyl COOH at 3 or 4 (tables differ)) [Ac-KRLR(SEQ ID NO: 8)-kbt-Benzyl-3-COOH] |  | 3.6 | 0.3 | 3.33 | 1620 | 

Molecule | IC50 of enzyme inhibition [1] [nM] | Ki [2] [nM] | Ki [3] [nM] | Ki [4] [nM] | Ki (recombinant thrombin) [nM] | Ki (Factor Xa) [nM]
H-Trp-Phe-Arg-kbt [H-WFR-kbt] |  |  | 240 | 5680 |  | 
H-[dW]-Phe-Arg-kbt [H-dWFR-kbt] |  |  | 370 | 2250 |  | 
Fmoc-Glu-Arg-kbt [Fmoc-ER-kbt] |  | 8.4 | 338 | > 20000 |  | 
Fmoc-Lys-Arg-kbt [Fmoc-KR-kbt] |  | 0.2 | 159 | > 20000 |  | 
B2 |  | 1500 | 1.13 | 2280 |  | 
Fmoc-Val-Arg-kbt [Fmoc-VR-kbt] |  | 1490 | 314 | 4630 |  | 
Ac-KRLR-{Kbt‑6‑CONH-Val-NH2} [Ac-KRLR(SEQ ID NO: 8)-Kbt-Val-NH2] |  | 7.42 | 0.227 | 5.83 | 1560 | 17
Fmoc-Ser-Arg-kbt [Fmoc-SR-kbt] |  | 90 | 886 | > 20000 |  | 
H-Trp-Leu-Arg-{kbt-OH} [H-WLR-kbt-COOH] |  |  | 446 | 1380 |  | 
Fmoc-Ala-Arg-kbt [Fmoc-AR-kbt] |  | 0.5 | 272 | 7980 |  | 
Fmoc-Gly-Arg-kbt [Fmoc-GR-kbt] |  | 0.1 | 831 | 9380 |  | 
H-[dW]-Leu-Arg-{kbt-OH} [H-dWLR-kbt-COOH] |  |  | 136 | 346 |  | 
B3 |  | 1550 | 2.08 | 3710 |  | 
Fmoc-Asn-Arg-kbt [Fmoc-NR-kbt] |  | 84.1 | 1.92 | > 20000 |  | 
Fmoc-Ile-Arg-kbt [Fmoc-IR-kbt] |  | 657 | 297 | 6470 |  | 
{Cy5.5}-KRLR-cmk (reading uncertain) [Cy5.5-KRLR(SEQ ID NO: 8)-cmk] |  | 172 | 324 | 34.1 |  | 
Fmoc-Asp-Arg-kbt [Fmoc-DR-kbt] |  | 398 | 233 | > 20000 |  | 
Fmoc-Met-Arg-kbt [Fmoc-MR-kbt] |  | 62.1 | 490 |  |  | 
Fmoc-Trp-Arg-kbt [Fmoc-WR-kbt] |  | 824 | 411 | 3200 |  | 
Fmoc-His-Arg-kbt [Fmoc-HR-kbt] |  | 66.7 | 268 | 6360 |  | 
Fmoc-Arg-Arg-kbt [Fmoc-RR-kbt] |  | 2 | 99.9 | 8630 |  | 
H-[dW]-Phe-Arg-{kbt-OH} [H-dWFR-kbt-COOH] |  | 232 | 1.41 | 981 |  | 
